Measurements: US5639868, “High-affinity RNA ligands for basic fibroblast growth factor” (NeXstar Pharmaceuticals, Inc.)

Assays:
[1] = biological target: T1, basic fibroblast growth factor (bFGF, FGF-2) (UniProt P09038 P09038:135-288); assay: filter; monophasic; conditions: tags: Bachem California; 18 kDa, 154 amino acids
Experimental: (§1) This affinity screening allowed identification of those ligands with highest affinity for bFGF. Binding of a group of these ligands was analyzed over a range of bFGF concentrations (FIG. 8) and their dissociation constants (Kd's) were determined as described (Jellinek et al. (1993) Proc. Natl. Acad. Sci. U.S.A. 90:11227–11231) (Table IX). RNA concentrations were determined from their absorbance reading at […] (and were typically <100 pM). Binding reactions were done at 37° C. in phosphate buffered saline containing 0.01% human serum albumin and 1 mM DTT.
(§2) The minimal sequence information required for high-affinity binding to bFGF was examined for several of the 2'-NH_2 modified ligands by deletion analyses as described (Tuerk et al. (1990) J. Mol. Biol. 213:749–761).

[2] = biological target: T1, basic fibroblast growth factor (bFGF, …); assay: filter; biphasic, Kd1 (mole fraction 0.5); Kd2 = 270 nM; conditions: tags: Bachem California; 18 kDa, 154 amino acids
Experimental: as §1, §2

[3] = biological target: T1, basic fibroblast growth factor (bFGF, …); assay: inhibition; 125I-bFGF binding to high-affinity receptor, BHK cells, 4 C; conditions: tags: Bachem California; 18 kDa, 154 amino acids; label: 125I
Experimental: Receptor Binding Studies. bFGF was labeled with ^125I by the Iodo-Gen (Pierce) procedure as described by Moscatelli (1987) supra. […] The amount of 125I-bFGF bound to the low- and the high-affinity receptor sites was determined as described by Moscatelli (1987) supra.

[4] = biological target: T1, basic fibroblast growth factor (bFGF, …); assay: filter; binding curve in figure only; PBS, 0.01% HSA, 1 mM DTT, 37 C; conditions: tags: Bachem California; 18 kDa, 154 amino acids
Experimental: Binding curves for modified RNA ligands 21A, 38B and random RNAs were determined (FIG. 8). RNA concentrations were determined from their absorbance reading at 260 nm and were typically less than 100 pM. Binding reactions were conducted at 37° C. in phosphate buffered saline containing 0.01% human serum albumin and 1 mM DTT. Heparin competitively displaced RNA ligands from both sequence families (FIG. 3), although higher concentrations of heparin were required to displace members of family 2 from bFGF.
as §1

[5] = biological target: T1, basic fibroblast growth factor (bFGF, …); assay: filter; biphasic, Kd1 (mole fraction 0.5); Kd2 = 180 nM; conditions: tags: Bachem California; 18 kDa, 154 amino acids
Experimental: as §1, §2

T1 sequence (P09038 135-288, one chain of several): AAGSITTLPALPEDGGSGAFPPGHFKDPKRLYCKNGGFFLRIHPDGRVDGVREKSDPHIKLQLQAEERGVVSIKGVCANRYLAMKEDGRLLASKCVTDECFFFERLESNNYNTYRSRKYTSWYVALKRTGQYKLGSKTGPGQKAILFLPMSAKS

**Q.** Which Kd [1] does the source give for GGAGGACGAUGCGGAACGGGAGGUACGAGAGCGGGAGC (ssRNA, 2'-NH2 at all C and U) [2'-NH2 34B-t] here?
**A.** The Kd was 3 nM.

**Q.** How did the Kd [2] turn out when GGUGUGUGGAAGACAGCGGGUGGUUC (ssRNA, 2'-NH2 at all C and U) [2'-NH2 21A-t] was run?
**A.** Its Kd is 0.1 nM.

B1: 7A (ssRNA)
RNA: GGGAGCUCAGAAUAAACGCUCAAUCGGCGAGCUAACCAAGACACUCGCUGCACUUCGACAUGAGGCCCGGAUCCGGC
**Q.** With B1 as the binder, how does the IC50 [3] read?
**A.** Its IC50 is roughly 1000 nM.

B2: 2'-NH2 38B (ssRNA)
RNA: GGGAGGACGAUGCGGGCUGCGGUGCGCAUGUGUGGAAGACAGAGGGAGGUUAGAAUCGUGCCGCCAGACGACUCGCCCGA
modifications: 2'-NH2 at all C and U
**Q.** Does B2 bind [4]?
**A.** Result: binds

B3: 26A (ssRNA)
RNA: GGGAGCUCAGAAUAAACGCUCAACGUCAGAAGGCAACGUAUAGGCAAGCACACUUCGACAUGAGGCCCGGAUCCGGC
**Q.** Which IC50 [3] does the source give for B3 here?
**A.** Its IC50 is roughly 1000 nM.

B4: 5A (ssRNA)
RNA: GGGAGCUCAGAAUAAACGCUCAAAUCUCCUCCCGUCGAAGCUAACCUGGCCACUUCGACAUGAGGCCCGGAUCCGGC
**Q.** How did the IC50 [3] turn out when B4 was run?
**A.** The IC50 was roughly 1000 nM.

**Q.** With GGACGGCGUGGUCCGAGGGUGGCGAGU (ssRNA, 2'-NH2 at all C and U) [2'-NH2 58A-t] as the binder, how does the Kd [5] read?
**A.** The Kd was 1.8 nM.

B5: 12A (ssRNA)
RNA: GGGAGCUCAGAAUAAACGCUCAAGGGGCAACGCUACAGACAAGUGCACCCAACUUCGACAUGAGGCCCGGAUCCGGC
**Q.** Which IC50 [3] does the source give for B5 here?
**A.** Its IC50 is greater than 1000 nM.
